Data from US8623997B2, “Variant Hhip1 protein and methods and uses thereof” (Curis, Inc., priority 2008, dated 2014).
Changes are numbered by the printed parent chain. Names may count otherwise. Blank lines part the entries; values can stand above or below the molecule they belong to.

Molecular target: T1, biotinylated-ShhN-Cys (Homo sapiens, UniProt Q15465)
T1 construct: ShhN-Cys (residues 24-197); His6 (N); made in house; host or cells: E. coli Rosetta 2
Assay: Bio-layer interferometry (Octet) binding kinetics of Hhip1β12 variants to Shh
Settings: for Kd / koff × 10^−4 / kon × 10^3: 1:1 binding model, n.d stands for no binding detected; for Shh binding of Hhip1β12 mutants (in words): bio-layer interferometry, compared with WT Hhip1β12
Description: The binding kinetics of the Hhip1β12 fragments as well as Hhip1β12 mutants were measured by bio-layer interferometry in the presence or absence of 10 mM EDTA on an Octet (Fortébio). Streptavidin high binding FA biosensors were loaded with biotinylated-ShhN-Cys in kinetic buffer (Fortébio). The loaded biosensors were washed and transferred to wells containing Hhip1β12 protein at concentrations of 1.2, 1.0, 0.8 and 0.6 μM in kinetic buffer. Hhip1β12 association and dissociation was measured for 30 and 20 min, respectively. Kinetic parameters (kon and koff) and affinities (KD) were calculated from a non-linear fit of the data based on a 1:1 binding model between Hhip1β12 and Shh using the Octet software. Multiple independent measurements were performed.
In order to assess the contribution of residues in the Hhip1 L1, L2 and L3 loops for binding to Shh, a series of single alanine Hipβ12 mutants were made using the QuickChange DNA mutagenesis kit (Stratagene) using the manufacturer's protocol, and their affinity for Shh was measured by bio-layer interferometry (as described in Example 2B). These mutations included Hhip1β12 mutants 1312A, E381A, M382A, D383A, D378A, T418A, Q420A, E380A, D387A and ΔL2.

B2: E380A: L2 loop single alanine variant made in the Hhip1β12 construct (protein)
chain: SNYLDQMEEYDKVEEISRKHKHNCFCIQEVVSGLRQPVGALHSGDGSQRLFILEKEGYVKILTPEGEIFKEPYLDIHKLVQSGIKGGDERGLLSLAFHPNYKKNGKLYVSYTTNQERWAIGPHDHILRVVEYTVSRKNPHQVDLRTARVFLEVAELHRKHLGGQLLFGPDGFLYIILGDGMITLDDMAEMDGLSDFTGSVLRLDVDTDMCNVPYSIPRSNPHFNSTNQPPEVFAHGLHDPGRCAVDRHPTDININLTILCSDSNGKNRSSARILQIIKGKDYESEPSLLEFKPFSNGPLVGGFVYRGCQSERLYGSYVFGDRNGNFLTLQQSPVTKQWQEKPLCLGTSGSCRGYFSGHILGFGEDELGEVYILSSSKSMTQTHNGKLYKIVDPKRPLMPEECRATVQPAQTLTSECSRLCRNGYCTPTGKCCCSPGWEGDFCRTAKCEPACRHGGVCVRPNKCLCKKGYLGPQCEHHHHHH
Shh binding of Hhip1β12 mutants (in words): minor to moderate effects on Shh binding | Shh binding of Hhip1β12 mutants (in words) (listed as E380): abolished binding to Shh

B4: E381A: L2 loop single alanine variant made in the Hhip1β12 construct (protein)
chain: B2 chain with A188E, E189A
Kd: 300 nM | koff × 10^−4: 3.3 × 10^−4 [s^−1] | kon × 10^3: 1.1 × 10^3 [M^−1 × s^−1]

B5: D378A: L2 loop single alanine variant made in the Hhip1β12 construct (protein)
chain: B2 chain with D186A, A188E
Kd: 2400 nM | koff × 10^−4: 3.6 × 10^−4 [s^−1] | kon × 10^3: 0.15 × 10^3 [M^−1 × s^−1] | Shh binding of Hhip1β12 mutants (in words): minor to moderate effects on Shh binding

B7: M382A: L2 loop single alanine variant made in the Hhip1β12 construct (protein)
chain: B2 chain with A188E, M190A
Shh binding of Hhip1β12 mutants (in words): abolished binding to Shh

More lines, now with the values ahead:

Kd: 270 nM | koff × 10^−4: 9.0 × 10^−4 [s^−1] | kon × 10^3: 3.4 × 10^3 [M^−1 × s^−1] | Shh binding of Hhip1β12 mutants (in words): little effect on Shh
B1: T418A: L3 loop single alanine variant made in the Hhip1β12 construct (protein)
chain: B2 chain with A188E, T226A

Kd: 500 nM | koff × 10^−4: 11.0 × 10^−4 [s^−1] | kon × 10^3: 2.1 × 10^3 [M^−1 × s^−1] | Shh binding of Hhip1β12 mutants (in words): little effect on Shh
B3: Q420A: L3 loop single alanine variant made in the Hhip1β12 construct (protein)
chain: B2 chain with A188E, Q228A

Shh binding of Hhip1β12 mutants (in words): abolished binding to Shh
B6: D387A: L2 loop single alanine variant made in the Hhip1β12 construct (protein)
chain: B2 chain with A188E, D195A
